The source of these data is the FLAb antibody collection (doi:10.1101/2023.12.08.570889).

B1: unnamed (protein)
chain 1: QMQLVESGGGVVQPGRSLRLSCAASGFTFSTYAMHWVRQAPGKGLEWVAVIWYDGSNKHYADSVKGRFTITRDNSKNTLNLQMNSLRAEDTAVYYCARSPRYDYYYEAFDVWGQGTMVTVSS
chain 2: SYVLTQPPSVSVAPGQTARITCGGNNLGSKSVHWYQQKPGQAPVLVVYDDSDRPSWIPERFSGSNSGNTATLTISRGEAGDEADYYCQVWDSSSDHVVFGGGTKLTVL
B2: unnamed (protein)
chain 1: QMQLVESGGGVVQPGRSLRLSCAASGFTFSTFAMHWVRQAPGKGLEWVAVIWYDGGNKHYADSVKGRFTITRDNSKNTLNLQMNSLRAEDTAVYYCARAPRYDEYYEAFDVWGQGTMVTVSS
chain 2: SYVLTQPPSVSVAPGQTARITCGGNNLGSKSVHWYQQKPGQAPVLVVYDDSDRPSWIPERFSGSNSGNTATLTISRGEAGDEADYYCQVWDSSSDHVVFGGGTKLTVL
B3: unnamed (protein)
chain 1: QMQLVESGGGVVQPGRSLRLSCAASGFTFSTFAMHWVRQAPGKGLEWVAVIWYDGSNKHYADSVKGRFTITRDNSKNTLNLQMNSLRAEDTAVYYCARAPRYDEAYEAFDVWGQGTMVTVSS
chain 2: SYVLTQPPSVSVAPGQTARITCGGNNLGSKSVHWYQQKPGQAPVLVVYDDSDRPSWIPERFSGSNSGNTATLTISRGEAGDEADYYCQVWDSSSDHVVFGGGTKLTVL
B4: unnamed (protein)
chain 1: QMQLVESGGGVVQPGRSLRLSCAASGFTFSTYAMHWVRQAPGKGLEWVAVIWYDGSNKHYADSVKGRFTITRDNSKNTLNLQMNSLRAEDTAVYYCARAPRYYDYWEAFDVWGQGTMVTVSS
chain 2: SYVLTQPPSVSVAPGQTARITCGGNNLGSKSVHWYQQKPGQAPVLVVYDDSDRPSWIPERFSGSNSGNTATLTISRGEAGDEADYYCQVWDSSSDHVVFGGGTKLTVL

In the assay the target is TSLP, Q969D9. Briefly: Kd (SPR).
As usually defined, the Kd is the equilibrium constant for the complex coming apart. For B1, the dissociation constant (Kd) was 0.524 µM.

Regarding B2, the Kd stood at 0.217 µM. This Kd is about 2.4-fold lower than that of the molecule before.

As to B3, the Kd is 0.502 µM. On to B4, for which the Kd is 0.285 µM.
